Reference: patent US20170128524A1

Target: c-Jun N-terminal Kinase (JNK)
Experiment: cell-based or functional assay

Which phosphorylation of STX1a (S14) in synaptosomes, L-JNKi1 on its own does the source give for L-JNKi1 (peptide) here?
The phosphorylation of STX1a (S14) in synaptosomes, L-JNKi1 on its own was -45%.
